Source: patent publication US20240252673A1, “ANTI-TISSUE FACTOR ANTIBODY-DRUG CONJUGATES AND THEIR USE IN THE TREATMENT OF CANCER” (priority 2017, published 2024)

Assays:
Assay type in all cases: in vivo, human
[1] = test system: patients with relapsed, recurrent and/or metastatic cervical cancer; experiment: Phase IIa single arm trial: safety and tolerability (CTCAE v4.03); details: 2.0 mg/kg q3w
Experimental: A Phase IIa single arm, multicenter trial investigated the efficacy, safety and tolerability of 2.0 mg/kg tisotumab vedotin in patients with relapsed, recurrent and/or metastatic cervical cancer. A total of 34 patients (n=34) were enrolled and received at least 1 dose of tisotumab vedotin. Each eligible patient was assigned to receive an intravenous (IV) infusion dose of tisotumab vedotin at a concentration of 2.0 mg/kg on day 1 of a 21-day cycle (i.e., each treatment cycle was 3 weeks (q3w)).
(§1) Lyophilized vials containing 40 mg of tisotumab vedotin were stored in a refrigerator at 2° C. to 8° C. Tisotumab vedotin was reconstituted in 4 ml of water leading to a reconstituted solution comprising 10 mg/mL tisotumab vedotin, 30 mM histidine, 88 mM sucrose, and 165 mM D-mannitol. […] The reconstituted tisotumab vedotin was diluted into a 0.9% NaCl 100 mL infusion bag according to the dose calculated for the patient to receive 2.0 mg/kg tisotumab vedotin. Intravenous infusion was completed within 24 hours after the tisotumab vedotin vial had been reconstituted. A 0.2 μm in-line filter was used for the intravenous infusion. The entire 100 mL volume from the prepared infusion bag was administered. No dead volume was provided.
A primary objective of the study was to assess safety and tolerability of tisotumab vedotin. Adverse event (AE) severity was graded according to CTCAE version 4.03. A secondary objective was preliminary evaluation of anti-tumor activity durability as assessed according to RECIST version 1.1. Tumor evaluations were performed by CT scans every six weeks.

[2] = test system: subjects with locally advanced and/or metastatic cancer of various types; experiment: Phase I/II dose-escalation study: safety and tolerability, adverse events (CTCAE v4.03) occurring up to 30 days after treatment
Experimental: A first-in-human phase I/II dose-escalating study following a 3+3 dose-escalation design was conducted in order to test the safety of tisotumab vedotin in 27 subjects with locally advanced and/or metastatic cancer of various types including cervical cancer (FIG. 2). Tisotumab vedotin was administered by intravenous infusion at doses ranging from 0.3 mg/kg to 2.2 mg/kg on day 1 of a 21-day cycle for four cycles (i.e., each treatment cycle was 3 weeks). Patients with stable disease (SD) or better at the end of four cycles had the option to continue treatment with tisotumab vedotin for eight additional cycles (FIG. 2). Tumor evaluations were performed by CT scans every six weeks. In order to qualify for SD, results of the CT scan scheduled for week six needed to be SD or better. Two CT scans were performed outside the per-protocol defined window.
as §1, with “patient.” for “patient to receive 2.0 mg/kg tisotumab vedotin.”
A primary objective of the study was to assess the safety and tolerability in a mixed population of patients with specified solid tumors. Adverse event (AE) severity was graded according to Common Terminology Criteria for Adverse Events (CTCAE) version 4.03. Secondary objectives of the study included determining the pharmacokinetic (PK) profile of tisotumab vedotin and preliminary evaluation of anti-tumor activity as assessed according to Response Evaluation Criteria in Solid Tumors [RECIST] version 1.1. Dose-limiting toxicities (DLTs) were determined during the first cycle and were defined as grade≥3 events possibly related to tisotumab vedotin. […] Tumor biopsies were required at baseline for TF expression which was assessed by immunohistochemistry utilizing tisotumab. TF staining intensity was determined using the H-scoring system.
Inclusion criteria for eligible subjects included: patients with relapsed, advanced, and/or metastatic cancer who have failed available standard therapy; and measurable disease.
Exclusion criteria included known past or current coagulation defects; ongoing major bleeding; and presence of CTCAE grade≥2 peripheral neuropathy.

[3] = test system: tisotumab vedotin treated patients; experiment: Adverse events of special interest reported in tisotumab vedotin treated patients
Excerpt: Three adverse events of special interest are ocular adverse events, adverse events of peripheral neuropathy, and adverse events of bleeding. […] Severe cases (CTCAE grade 3) of conjunctivitis and keratitis are observed, however implementation of a comprehensive mitigation plan and preventive measures substantially reduce both the frequency and severity of ocular adverse reactions. In order to prevent ocular AEs, the following ocular pre-medication guidelines are followed: use of preservative-free lubricating eye drops from the start of treatment with tisotumab vedotin until the end of treatment; avoid use of contact lenses while treated with tisotumab vedotin; use of refrigerator-based eye cooling pads during infusion, e.g. THERA PEARL Eye Mask or similar, to be applied immediately before infusion in accordance with the instructions provided with the eye cooling pads; administration of local ocular vasoconstrictor before infusion (brimonidine tartrate 0.2% eye drops or similar, 3 drops in each eye immediately prior to start of infusion; otherwise to be used in accordance with the product prescribing information).
A mitigation plan, including dose reduction (see Table 9) and dose delay (i.e., hold dosing until event has improved to ≤grade 1), is in place to prevent onset of peripheral neuropathy as well as deterioration of pre-existing conditions. For AEs of bleeding: Bleeding events are considered of special interest due to the mode of action of tisotumab vedotin. […] Excluding epistaxis, no causal relation has been established for the majority of the reported bleeding events and treatment with tisotumab vedotin.

Substance: tisotumab vedotin
- grade 4 or grade 5 events ([1]; 34 patients): no grade 4 or grade 5 events
- patients withdrew from treatment due to AE ([1]; 34 patients): 5 n
- patients experienced conjunctivitis at grade≥3 ([1]; after mitigation (n=19)): 5%
- patients experienced conjunctivitis of any grade ([1]; after mitigation (n=19)): 32%
- patients experienced conjunctivitis of any grade ([1]; prior to mitigation (n=15)): 73%
- safety profile, overall conclusion ([1]; cervical cancer cohort): manageable safety profile
- AE leading to discontinuation ([2]; 0.3 mg/kg (n = 3)): 0 n
- AE leading to discontinuation ([2]; 0.6 mg/kg (n = 3)): 0 n
- AE leading to discontinuation ([2]; 0.9 mg/kg (n = 3)): 0 n
- AE with outcome of death ([2]; 0.9 mg/kg (n = 3)): 0 n
- Serious AE ([2]; 0.9 mg/kg (n = 3)): 0 n
- AE leading to discontinuation ([2]; 1.2 mg/kg (n = 3)): 0 n
- AE with outcome of death ([2]; 1.2 mg/kg (n = 3)): 0 n
- AE leading to discontinuation ([2]; 1.5 mg/kg (n = 3)): 0 n
- AE with outcome of death ([2]; 1.5 mg/kg (n = 3)): 0 n
- AE with outcome of death ([2]; 1.8 mg/kg (n = 3)): 0 n
- AE leading to discontinuation ([2]; 2.0 mg/kg (n = 3)): 0 n
- AE with outcome of death ([2]; 2.0 mg/kg (n = 3)): 0 n
- AE with outcome of death ([2]; 2.2 mg/kg (n = 6)): 0 n
- DLTs (diabetes mellitus type 2, mucositis, neutropenic fever, all grade 3) ([2]; 2.2 mg/kg dose cohort, in three patients, first cycle): Three
- Maximum tolerated dose (MTD) ([2]; IV, day 1 of 21-day cycle): 2.0 mg/kg
- tolerability ([2]; Patient 2, cervical cancer, 1.2 mg/kg): well tolerated and no severe AEs were reported
- discontinued due to AE: grade 1 pneumonitis ([2]; all 27 patients): 1 n
- discontinued due to AE: grade 2 peripheral swelling and grade 3 pain in extremity ([2]; all 27 patients): one
- discontinued due to AE: grade 3 Guillain-Barre syndrome ([2]; all 27 patients): 1 n
- discontinued due to AE: grade 3 abdominal pain ([2]; all 27 patients): 2 n
- discontinued due to AE: grade 3 diabetes mellitus ([2]; all 27 patients): 1 n
- discontinued due to AE: grade 3 fatigue ([2]; all 27 patients): 1 n
- grade 4 events ([2]; all 27 patients): no grade 4 events
- grade≥3 treatment-related AE: abdominal pain ([2]; all 27 patients): 3 n
- grade≥3 treatment-related AE: anemia ([2]; all 27 patients): 4 n
- grade≥3 treatment-related AE: fatigue ([2]; all 27 patients): 4 n
- grade≥3 treatment-related AE: hyponatraemia ([2]; all 27 patients): 3 n
- patients experienced grade≥3 treatment-related AEs ([2]; all 27 patients): 19 patients
- treatment-related AE: anaemia ([2]; all 27 patients): 41%
- treatment-related AE: epitaxis ([2]; all 27 patients): 48%
- treatment-related AE: fatigue ([2]; all 27 patients): 48%
- changes in coagulation parameters ([2]; all doses): No significant changes
- patients withdrew from treatment due to AEs ([2]; all doses, 27 patients): 15%
- patients withdrew from treatment due to death ([2]; all doses, 27 patients): 4%
- patients withdrew from treatment due to dose-limiting toxicities (DLTs) ([2]; all doses, 27 patients): 4%
- mean prothrombin time ([2]; by the end of the study (n=17), baseline 11.5 seconds (n=18)): 11.7 s
- mean activated partial thromboplastin time ([2]; by the end of the study (n=23), baseline 28.2 seconds (n=25)): 27.1 s
- AEs of grade 1-2 conjunctivitis ([3]; human, in vivo): frequently reported
- impact on activated partial thromboplastin time (aPTT) or prothrombin time (PT) ([3]; human, in vivo): no major impact
- peripheral neuropathy, grade of the reported cases ([3]; leading cause of permanent discontinuation): majority of the reported cases are grade 1-2
- Epistaxis ([3]; nearly all of the cases are grade 1): most common reported AE
